The values that follow come from US20030114377A1.

In experiment [1] the target is soluble CD14 DPRQY deletion mutant (residues 59-63 of SEQ ID NO: 1 deleted) (human) (UniProt P08571). The experiment is described as follows: ELISA, mutant CD14 coated, biotinylated mAb; grade = OD as % of wild-type CD14 (++ 51-75%). For orientation: In an ELISA, binding on a coated surface is turned into a signal by an enzyme label.
Experiment [2] has the same target. Nature of the experiment: ELISA, mutant CD14 coated, biotinylated mAb; grade = OD as % of wild-type CD14 (++++ >90%).
The target of experiment [3] is soluble CD14 DDED deletion mutant (residues 9-12 of SEQ ID NO: 1 deleted) (human) (UniProt P08571). The experiment is described as above.
The target of experiment [4] is soluble CD14 DDED/PQPD double deletion mutant (residues 9-12 and 22-25 of SEQ ID NO: 1 deleted) (human) (UniProt P08571). Described as above.
Experiment [5] concerns the target soluble CD14 PQPD deletion mutant (residues 22-25 of SEQ ID NO: 1 deleted) (human) (UniProt P08571). The experiment is described as follows: ELISA, mutant CD14 coated, biotinylated mAb; grade = OD as % of wild-type CD14 (+++ 76-90%).
Experiment [6] addresses soluble CD14 AVEVE deletion mutant (residues 35-39 of SEQ ID NO: 1 deleted) (human) (UniProt P08571). The experiment is described as follows: ELISA, mutant CD14 coated, biotinylated mAb; grade = OD as % of wild-type CD14 (++ 51-75%).
Experiment [7] addresses soluble CD14 DDED deletion mutant (residues 9-12 of SEQ ID NO: 1 deleted) (human) (UniProt P08571). Nature of the experiment: ELISA, mutant CD14 coated, biotinylated mAb; grade = OD as % of wild-type CD14 (+ 11-50%).
The target in experiment [8] is soluble CD14 PQPD deletion mutant (residues 22-25 of SEQ ID NO: 1 deleted) (human) (UniProt P08571). The experiment is described as above.
Experiment [9] concerns the target soluble CD14 DDED deletion mutant (residues 9-12 of SEQ ID NO: 1 deleted) (human) (UniProt P08571). Nature of the experiment: ELISA, mutant CD14 coated, biotinylated mAb; grade = OD as % of wild-type CD14 (+++ 76-90%).
For experiment [10], the target named is soluble CD14 DDED/PQPD double deletion mutant (residues 9-12 and 22-25 of SEQ ID NO: 1 deleted) (human) (UniProt P08571). Described as above.

In experiment [1], anti-CD14 monoclonal antibody MO-2 had an OD405 as percent of wild-type CD14 OD of 51 to 75%.

anti-CD14 monoclonal antibody MY4: the OD405 as percent of wild-type CD14 OD in experiment [2] was above 90%.

In the case of anti-CD14 monoclonal antibody 63D3, the OD405 as percent of wild-type CD14 OD in experiment [3] is above 90%; in experiment [4] it was above 90%; in [2] it was above 90%; in experiment [5] it was 76 to 90%; in experiment [6], 51 to 75%.

For the substance anti-CD14 monoclonal antibody UCHM-1, the OD405 as percent of wild-type CD14 OD in experiment [2] was above 90%; in [7], 11 to 50%; in experiment [8], 11 to 50%.

Consider anti-CD14 monoclonal antibody MEM-18, for which the OD405 as percent of wild-type CD14 OD in [9] lay in the range of 76 to 90%; in experiment [5], 76 to 90%; in experiment [10], 76 to 90%; in experiment [6] it was 51 to 75%.
